Common to all, as to assay: ITC; MED25 ACID (200 or 250 µM, syringe) titrated into NS1 (20 µM, cell); 20 mM Tris pH 8.0, 200 mM NaCl, 1 mM TCEP, 25°C; one set of sites model
In experiment [1] the target is RSV NS1, full-length wild type (aa 1–139) (human respiratory syncytial virus subgroup A, Long strain).
In experiment [2] the target is NS1 Y125A (human respiratory syncytial virus subgroup A, Long strain).
Experiment [3] addresses NS1 M122A (human respiratory syncytial virus subgroup A, Long strain).
Experiment [4] concerns the target NS1 I54A (human respiratory syncytial virus subgroup A, Long strain).
The target in experiment [5] is NS1 F56A (human respiratory syncytial virus subgroup A, Long strain).
Experiment [6] has as its target NS1 E110A (human respiratory syncytial virus subgroup A, Long strain).
Experiment [7] concerns the target NS1 L133A (human respiratory syncytial virus subgroup A, Long strain).
The target of experiment [8] is NS1 K112A (human respiratory syncytial virus subgroup A, Long strain).

B1: MED25 ACID (aa 389–543) (domain or fragment)
chain: LGGQQSVSNKLLAWSGVLEWQEKPKPASVDANTKLTRSLPCQVYVNHGENLKTEQWPQKLIMQLIPQQLLTTLGPLFRNSRMVQFHFTNKDLESLKGLYRIMGNGFAGCVHFPHTAPCEVRVLMLLYSSKKKIFMGLIPYDQSGFVNGIRQVITN
Turning to B1, the equilibrium dissociation constant (Kd) in experiment [1] turned out to be 44 nM; in experiment [2], 80 nM; in experiment [3], 606 nM; in experiment [4], 45 nM; in experiment [5] it was 198 nM; in experiment [6], 1540 nM. Besides, the Kd in experiment [7] turned out to be 2230 nM; in experiment [8] it was 79 nM. The dH was -10.1 kcal/mol in experiment [1]; -11.9 kcal/mol in experiment [2]; -10.4 kcal/mol in experiment [3]; -10.7 kcal/mol in experiment [4]; -8.3 kcal/mol in experiment [5]; -7.7 kcal/mol in experiment [6]. Further, the dH in experiment [7] was -7.6 kcal/mol; in experiment [8], -10.7 kcal/mol. The stoichiometry N was 0.73 in experiment [1]; 0.53 in experiment [2]; 0.71 in experiment [3]; 0.79 in experiment [4]; 0.8 in experiment [5]; 0.86 in experiment [6]. Besides, the stoichiometry N in experiment [7] stood at 0.44; in experiment [8], 0.66.

Source of the values: article PMC12431651.
